Literature values, collected in article PMC11743636.

Experiments:
[1] = target: sgp130 (Homo sapiens) (UniProt P40189)
[2] = target: sIL-6R (Homo sapiens) (UniProt P08887)
Chain of sIL-6R (Homo sapiens) (P08887 20-355): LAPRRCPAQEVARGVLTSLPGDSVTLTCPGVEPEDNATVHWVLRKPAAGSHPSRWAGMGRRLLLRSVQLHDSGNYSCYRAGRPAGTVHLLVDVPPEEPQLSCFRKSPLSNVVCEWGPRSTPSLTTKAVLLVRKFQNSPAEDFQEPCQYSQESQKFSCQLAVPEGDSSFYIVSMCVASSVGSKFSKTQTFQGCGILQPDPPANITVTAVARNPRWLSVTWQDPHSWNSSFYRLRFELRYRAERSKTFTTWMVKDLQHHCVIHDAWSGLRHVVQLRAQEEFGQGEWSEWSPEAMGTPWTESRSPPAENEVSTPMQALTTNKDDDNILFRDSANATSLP

Chain of sgp130 (Homo sapiens) (P40189 23-619): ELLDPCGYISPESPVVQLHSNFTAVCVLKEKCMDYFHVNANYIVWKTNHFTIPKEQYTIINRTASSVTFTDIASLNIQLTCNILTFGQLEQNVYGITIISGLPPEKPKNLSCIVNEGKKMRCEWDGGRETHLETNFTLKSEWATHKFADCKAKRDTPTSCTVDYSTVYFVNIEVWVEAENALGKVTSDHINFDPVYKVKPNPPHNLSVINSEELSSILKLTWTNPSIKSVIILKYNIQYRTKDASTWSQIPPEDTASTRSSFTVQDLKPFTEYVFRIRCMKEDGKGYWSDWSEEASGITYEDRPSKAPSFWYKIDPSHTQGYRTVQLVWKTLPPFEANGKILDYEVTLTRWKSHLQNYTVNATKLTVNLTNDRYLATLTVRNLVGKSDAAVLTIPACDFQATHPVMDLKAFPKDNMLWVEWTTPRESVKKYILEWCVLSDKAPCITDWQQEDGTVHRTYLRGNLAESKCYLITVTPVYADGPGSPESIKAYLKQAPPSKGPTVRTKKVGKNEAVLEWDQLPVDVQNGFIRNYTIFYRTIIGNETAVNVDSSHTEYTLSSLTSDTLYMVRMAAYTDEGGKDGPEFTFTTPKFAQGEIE

| Substance | Kd [1] [nM] | Kd [2] [nM] |
| --- | --- | --- |
| IL-6/sIL-6R complex (from UniProt P05231) | 0.05 |  |
| IL-6 (from UniProt P05231) |  | 0.5 |
